Source: paper PMC4559223 (Journal of molecular biology, 2008)

How the values were obtained:
crystal structure = target: the molecule itself; test: crystal structure
native gel or EMSA = target: the molecule itself; test: native gel or EMSA

Row | Protein | binding result (crystal structure) | binding result (native gel or EMSA)
1 | mouse GATA3 C-terminal zinc finger (amino acid residues 308-370) (domain or fragment, UniProt P23772 308-370, looked up) SAARRAGTSCANCQTTTTTLWRRNANGDPVCNACGLYYKLHNINRPLTMKKEGIQTRNRKMSS | binds | 
2 | mouse GATA3 double zinc finger fragment (amino acids 260-370) (domain or fragment) not shown |  | binds
